# Data reported in publication PMC12079263.
# Target: Rab11 (1–173, Q70L) with 6 × His, bound to GTP-γ-S (UniProt P62491)
# Test: SPR
substance,measurement,value
"p14^1–69 protein (p14 FAST protein of reptilian reovirus, residues 1-69) reconstituted into bicelles (domain or fragment)",Kd,2130 nM
